Measured values taken from patent US20200024330A1.

Tests used:
Assay in all cases: cell-based or functional assay
[1] = target: HIV-1 MGRM-A-005 envelope glycoprotein (Env) (HIV-1)
[2] = target: HIV-1 Env of isolate CMU02 (HIV-1)
[3] = target: HIV-1 Env of pseudovirus THR0.18 (Acute), clade B (HIV-1)
[4] = target: HIV-1 Env of pseudovirus MGRM-Chronic-B-008, clade B (HIV-1)
[5] = target: HIV-1 Env of isolate 92UG046 (clade D) (HIV-1)
[6] = target: HIV-1 NL43 envelope protein (Env) on pseudovirus (HIV-1)
[7] = target: HIV-1 93RW029 envelope glycoprotein (Env) (HIV-1)
[8] = target: HIV-1 Env of isolate SF162 (HIV-1) (UniProt P19549)
[9] = target: HIV-1 92UG037 envelope glycoprotein (Env) (HIV-1)
[10] = target: HIV-1 Env of isolate MGRM-C-023 (HIV-1)
[11] = target: HIV-1 Env of isolate PVO.4 (HIV-1)
[12] = target: HIV-1 Env of isolate MGRM-D-018 (HIV-1)
[13] = target: HIV-1 Env of isolate 92UG046 (HIV-1)
[14] = target: HIV-1 Env of isolate MGRM-F1-017 (subtype F), on pseudovirus (HIV-1)
[15] = target: HIV-1 Env of isolate MGRM-AG-009 (CRF_AG), on pseudovirus (HIV-1)
[16] = target: HIV-1 Env of isolate MGRM-F1-012 (subtype F), on pseudovirus (HIV-1)
[17] = target: HIV-1 Env of isolate 97ZA012 (HIV-1)
[18] = target: HIV-1 Env of isolate MGRM-AE-008 (CRF01_AE), on pseudovirus (HIV-1)
[19] = target: HIV-1 Env of isolate MGRM-C-024 (HIV-1)
[20] = target: HIV-1 Env of isolate MGRM-F1-022 (subtype F), on pseudovirus (HIV-1)
[21] = target: HIV-1 Env of isolate MGRM-C-022 (HIV-1)
[22] = target: HIV-1 Env of isolate MGRM-D-002 (HIV-1)
[23] = target: HIV-1 Env of isolate MGRM-D-011 (HIV-1)
[24] = target: HIV-1 Env of isolate MGRM-C-007 (HIV-1)
[25] = target: HIV-1 Env of isolate MGRM-F1-014 (subtype F), on pseudovirus (HIV-1)
[26] = target: HIV-1 Env of isolate MGRM-A-010 (clade A), on pseudovirus (HIV-1)
[27] = target: HIV-1 Env of isolate APV-6 (pseudovirus) (HIV-1 isolate APV-6, subtype B)
[28] = target: HIV-1 Env of isolate MGRM-C-026 (HIV-1)
[29] = target: HIV-1 Env of isolate MGRM-AG-013 (CRF_AG), on pseudovirus (HIV-1)
[30] = target: HIV-1 Env of isolate MGRM-F1-018 (subtype F), on pseudovirus (HIV-1)
[31] = target: HIV-1 JR-CSF Env R166A (HIV-1 (isolate JR-CSF)) (UniProt P20871)
[32] = target: HIV-1 SC422661.8 Env (pseudovirus) (HIV-1)
[33] = target: HIV-1 Env of isolate MGRM-F1-012 (subtype F) (HIV-1)
[34] = target: HIV-1 Env of isolate MGRM-F1-008 (subtype F) (HIV-1)
[35] = target: HIV-1 THR0.18 Env (pseudovirus) (HIV-1)
[36] = target: HIV-1 Env of isolate MG RM-AG-011 (HIV-1)
[37] = target: HIV-1 Env of isolate MG RM-D-002 (subtype D) (HIV-1)
[38] = target: HIV-1 Env of isolate MG RM-D-012 (subtype D) (HIV-1)
[39] = target: HIV-1 MGRM-Chronic-B-004 Env (pseudovirus) (HIV-1)
[40] = target: HIV-1 Env of isolate MGRM-F1-018 (HIV-1)
[41] = target: HIV-1 Env of isolate MGRM-C-020 (pseudovirus) (HIV-1 isolate MGRM-C-020, subtype C)
[42] = target: HIV-1 Env of isolate MGRM-F1-016 (HIV-1)
[43] = target: HIV-1 Env of isolate MGRM-F1-004 (subtype F) (HIV-1)
[44] = target: HIV-1 Env of isolate MGRM-C-015 (pseudovirus) (HIV-1 isolate MGRM-C-015, subtype C)

Chain of 5345_I01 (PGT-137) (antibody) (VH): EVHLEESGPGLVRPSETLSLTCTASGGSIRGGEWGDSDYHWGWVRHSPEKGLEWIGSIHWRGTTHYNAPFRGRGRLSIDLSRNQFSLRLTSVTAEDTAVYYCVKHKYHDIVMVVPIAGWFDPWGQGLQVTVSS
Chain of 5345_I01 (PGT-137) (antibody) (VL): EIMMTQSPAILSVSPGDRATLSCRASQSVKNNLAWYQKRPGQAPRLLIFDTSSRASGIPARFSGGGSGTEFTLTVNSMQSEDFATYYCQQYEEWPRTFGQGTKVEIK
Chain of 5329_C19 (PGT-136) (antibody) (VH): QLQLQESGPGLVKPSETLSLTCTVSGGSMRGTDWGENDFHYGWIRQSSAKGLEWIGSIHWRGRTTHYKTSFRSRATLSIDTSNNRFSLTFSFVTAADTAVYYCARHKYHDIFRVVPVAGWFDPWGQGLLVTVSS
Chain of 5329_C19 (PGT-136) (antibody) (VL): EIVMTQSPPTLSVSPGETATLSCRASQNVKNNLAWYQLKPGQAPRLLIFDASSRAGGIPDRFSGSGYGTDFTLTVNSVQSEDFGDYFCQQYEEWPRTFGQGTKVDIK

Substance	IC50 [10] [µg/mL]	IC50 [12] [µg/mL]	IC50 [13] [µg/mL]	IC50, pseudovirus neutralization [14] [µg/mL]	IC50, single-round pseudovirus neutralization [15] [µg/mL]	IC50, pseudovirus neutralization [16] [µg/mL]	IC50 [17] [µg/mL]	IC50, single-round pseudovirus neutralization [18] [µg/mL]	IC50 [19] [µg/mL]	IC50, pseudovirus neutralization [20] [µg/mL]	IC50 [21] [µg/mL]	IC50 [22] [µg/mL]	IC50 [23] [µg/mL]	IC50 [24] [µg/mL]	IC50, pseudovirus neutralization [25] [µg/mL]	IC50, single-round pseudovirus neutralization [26] [µg/mL]	IC50 (µg/mL) neutralization [27] [µg/mL]	IC50 [28] [µg/mL]	IC50, single-round pseudovirus neutralization [29] [µg/mL]	IC50, pseudovirus neutralization [30] [µg/mL]	also measured
2F5 (antibody)	–	–	–	–	–	–	–	–	–	–	–	–	–	–	–	–	–	–	–	–	IC50 (µg/ml), pseudovirus neutralization [1]: 5.7 µg/mL; IC50 (µg/ml), pseudovirus neutralization [2]: 0.6 µg/mL; IC50 (µg/ml), pseudovirus neutralization [3]: > 50 µg/mL; IC50 (µg/ml), pseudovirus neutralization [4]: > 50 µg/mL; IC50 (µg/ml), pseudovirus neutralization [5]: > 50 µg/mL; neutralization IC50 [6]: 2.41 µg/mL; IC50 (µg/ml), pseudovirus neutralization [7]: > 50 µg/mL; IC50 (µg/ml), pseudovirus neutralization [8]: 2.52 µg/mL; IC50 (µg/ml), pseudovirus neutralization [9]: 3.24 µg/mL
2G12 (antibody)	–	–	–	–	–	–	–	–	–	–	–	–	–	–	–	–	–	–	–	–	IC50 (µg/ml), pseudovirus neutralization [1]: > 50 µg/mL; IC50 (µg/ml), pseudovirus neutralization [2]: > 50 µg/mL; IC50 (µg/ml), pseudovirus neutralization [3]: > 50 µg/mL; IC50 (µg/ml), pseudovirus neutralization [4]: 0.55 µg/mL; IC50 (µg/ml), pseudovirus neutralization [5]: > 50 µg/mL; neutralization IC50 [6]: 0.75 µg/mL; IC50 (µg/ml), pseudovirus neutralization [7]: > 50 µg/mL; IC50 (µg/ml), pseudovirus neutralization [8]: 1.67 µg/mL; IC50 (µg/ml), pseudovirus neutralization [9]: 45.2 µg/mL
4E10 (antibody)	–	–	–	–	–	–	–	–	–	–	–	–	–	–	–	–	–	–	–	–	IC50 (µg/ml), pseudovirus neutralization [1]: 4.09 µg/mL; IC50 (µg/ml), pseudovirus neutralization [2]: 0.72 µg/mL; IC50 (µg/ml), pseudovirus neutralization [3]: 4.68 µg/mL; IC50 (µg/ml), pseudovirus neutralization [4]: 16.7 µg/mL; IC50 (µg/ml), pseudovirus neutralization [5]: 12.2 µg/mL; neutralization IC50 [6]: 4.95 µg/mL; IC50 (µg/ml), pseudovirus neutralization [7]: 15.5 µg/mL; IC50 (µg/ml), pseudovirus neutralization [8]: 4.28 µg/mL; IC50 (µg/ml), pseudovirus neutralization [9]: 8.84 µg/mL
5114_A19 (PGT-128) (antibody)	0.026	0.008	> 50	11.7	0.021	0.007	0.019	> 50	> 50	4.54	0.042	0.011	0.007	0.111	0.277	0.005	0.007	0.007	0.004	0.023	IC50 [11]: 0.005 µg/mL; Fold IC50 increase relative to wild-type [31]: 2.7 fold
5136_H01 (PGT-131) (antibody)	0.143	0.148	> 50	> 50	> 50	> 50	1.81	> 50	> 50	> 50	0.78	11.2	0.756	> 50	> 50	0.01	> 50	1.67	0.03	> 50	IC50 [11]: > 50 µg/mL; Fold IC50 increase relative to wild-type [31]: 1.6 fold
5141_B17 (PGT-126) (antibody)	–	–	–	–	–	–	–	–	–	–	–	–	–	–	–	–	–	–	–	–	IC50, pseudovirus neutralization [32]: 0.119 µg/mL; IC50 (µg/mL), pseudovirus neutralization [33]: 0.3 µg/mL; IC50 (µg/mL), pseudovirus neutralization [34]: > 50 µg/mL; IC50, pseudovirus neutralization [35]: > 50 µg/mL; neutralization IC50 [36]: 24.5 µg/mL; IC50 (µg/mL), pseudovirus neutralization [37]: 0.039 µg/mL; IC50 (µg/mL), pseudovirus neutralization [38]: > 50 µg/mL; IC50, pseudovirus neutralization [39]: 0.01 µg/mL; IC50 [40]: 14.9 µg/mL; IC50 (µg/mL) neutralization [41]: > 50 µg/mL; IC50 [42]: > 50 µg/mL; IC50 (µg/mL), pseudovirus neutralization [43]: 0.063 µg/mL; Fold IC50 increase relative to wild-type [31]: 1 fold; IC50 (µg/mL) neutralization [44]: 3.14 µg/mL
5145_B14 (PGT-127) (antibody)	–	–	–	–	–	–	–	–	–	–	–	–	–	–	–	–	–	–	–	–	IC50, pseudovirus neutralization [32]: 36.7 µg/mL; IC50 (µg/mL), pseudovirus neutralization [33]: > 50 µg/mL; IC50 (µg/mL), pseudovirus neutralization [34]: > 50 µg/mL; IC50, pseudovirus neutralization [35]: > 50 µg/mL; neutralization IC50 [36]: > 50 µg/mL; IC50 (µg/mL), pseudovirus neutralization [37]: 0.6 µg/mL; IC50 (µg/mL), pseudovirus neutralization [38]: > 50 µg/mL; IC50, pseudovirus neutralization [39]: 0.018 µg/mL; IC50 [40]: 3.59 µg/mL; IC50 (µg/mL) neutralization [41]: > 50 µg/mL; IC50 [42]: > 50 µg/mL; IC50 (µg/mL), pseudovirus neutralization [43]: 0.068 µg/mL; Fold IC50 increase relative to wild-type [31]: 1.6 fold; IC50 (µg/mL) neutralization [44]: > 50 µg/mL
5147_N06 (PGT-130) (antibody)	0.151	0.049	> 50	> 50	9.46	> 50	1.32	> 50	> 50	> 50	0.127	0.869	0.019	> 50	11.8	0.005	> 50	0.036	0.01	> 50	IC50 [11]: 5.17 µg/mL; Fold IC50 increase relative to wild-type [31]: 1.2 fold
5329_C19 (PGT-136) (antibody)	3.2	> 50	> 50	> 50	> 50	> 50	> 50	> 50	> 50	2.42	> 50	> 50	> 50	> 50	> 50	> 50	> 50	0.006	> 50	> 50	IC50 [11]: > 50 µg/mL
5343_B08 (PGT-135) (antibody)	0.051	0.039	> 50	7.79	> 50	0.01	> 50	> 50	> 50	0.964	> 50	> 50	23.5	> 50	> 50	> 50	> 50	0.004	> 50	> 50	IC50 [11]: > 50 µg/mL; Fold IC50 increase relative to wild-type [31]: 0.9 fold
5345_I01 (PGT-137) (antibody)	0.23	15.1	> 50	> 50	> 50	> 50	> 50	> 50	> 50	6.23	> 50	> 50	6.3	> 50	> 50	> 50	> 50	0.011	> 50	> 50	–
